The results in this text go back to US20030165991A1.

In test [1] the target is Monoclonal antibody mAB 6F5 (anti-deoxynivalenol monoclonal antibody from hybridoma cell line 6F5). Put plainly: CD-ELISA, immobilized mAB 6F5; C430 competing with DON-HRP or C430-HRP conjugate.
For test [2], the target named is antiserum from C430-BSA-immunized mice. Put plainly: CI-ELISA, immobilized phage-displayed DONPEP.2, antiserum after the fourth injection, free C430 as competitor.

Take H-SWGPFPFGGGSC-OH [synthetic peptide C430 (NH2-…-COOH)]: the IC50 in test [1] was 640 to 800 nM; in test [2], 390 nM.
